Measurements reported in paper PMC3569440, “Recombinant Production of Human Aquaporin-1 to an Exceptional High Membrane Density in Saccharomyces cerevisiae” (PLoS ONE, 2013).
Values joined by “and” are separate entries in the source; they are usually repeats but may differ in a detail not shown here. Identical values can stand only once.

Molecular target: the molecule itself
Test: SEC; fluorescence-detection size-exclusion chromatography (FSEC); crude membranes (2 mg/ml) solubilized in CYMAL-5 or DDM at a detergent:protein ratio of 3, 50 mM phosphate pH 7.5, 10 mM imidazole, 500 mM NaCl, 4°C; Superose 12 10/300 GL; GFP fluorescence of fractions

B1: human Aquaporin-1 C-terminally tagged with yeast enhanced GFP and eight histidines (hAQP1-GFP-8His) (natural protein, UniProt P29972 1-269, looked up)
chain: MASEFKKKLFWRAVVAEFLATTLFVFISIGSALGFKYPVGNNQTAVQDNVKVSLAFGLSIATLAQSVGHISGAHLNPAVTLGLLLSCQISIFRALMYIIAQCVGAIVATAILSGITSSLTGNSLGRNDLADGVNSGQGLGIEIIGTLQLVLCVLATTDRRRRDLGGSAPLAIGLSVALGHLLAIDYTGCGINPARSFGSAVITHNFSNHWIFWVGPFIGGALAVLIYDFILAPRSSDLTDRVKVWTSGQVEEYDLDADDINSRVEMKPK
notes: human Aquaporin-1 (hAQP1), 269 amino acids; coding part of the cDNA without a translational stop codon, fused in frame to yeast enhanced GFP and eight histidines; not N-glycosylated in yeast; Order on the chain: hAQP1, yEGFP, 8 His; also called hAQP1-GFP-His8; Aquaporin-1-GFP; source: S. cerevisiae PAP1500 (plasmid pPAP8230), crude membranes solubilized in CYMAL-5 or DDM; also purified (CYMAL-5, …)
B1 was tested, and the “stoichiometry N” value was 4 and > 4.
